The values that follow are results of earlier work, collected in patent US7718413B2, “Glycosylation variants of BACE” (Elan Pharmaceuticals, Inc., priority 2003, dated 2010).

Non-standard residues stand in square brackets, D forms with d. No end group written: not given here. Sta = CC(C)C[C@H](N)[C@@H](O)CC(=O)O

The data set deals with β-secretase (Homo sapiens, UniProt P56817). The settings on record: previous studies.
β-secretase, sequence (P56817 46-501): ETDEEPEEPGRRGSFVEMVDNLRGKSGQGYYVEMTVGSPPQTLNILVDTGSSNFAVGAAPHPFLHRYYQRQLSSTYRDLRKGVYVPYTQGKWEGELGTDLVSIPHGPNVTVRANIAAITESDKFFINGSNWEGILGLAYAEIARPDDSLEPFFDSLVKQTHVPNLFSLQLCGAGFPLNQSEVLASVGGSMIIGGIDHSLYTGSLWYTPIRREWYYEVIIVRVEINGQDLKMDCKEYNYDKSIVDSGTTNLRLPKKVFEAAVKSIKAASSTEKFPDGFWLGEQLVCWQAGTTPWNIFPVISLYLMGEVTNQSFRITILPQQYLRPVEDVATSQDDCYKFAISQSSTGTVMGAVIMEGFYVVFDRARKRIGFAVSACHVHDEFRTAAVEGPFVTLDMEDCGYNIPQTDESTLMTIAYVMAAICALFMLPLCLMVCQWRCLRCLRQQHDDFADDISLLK

Take “KTEEISEVN[sta]VAEF (KTEEISEVN[Sta]VAEF) [P10-P4′staD→V]”: the “inhibitor of the enzyme (potency in words)” value is listed as “reasonably potent inhibitor”.
